The DeepSol protein solubility set

experiment: soluble on expression in E. coli; label from the status in PepcDB or PDB records

| Sequence | soluble on expression in E. coli |
| --- | --- |
| MLVGLIGYGAIGKFLAEWLERNGFEIAAILDVRGEHEKMVRGIDEFLQREMDVAVEAASQQAVKDYAEKILKAGIDLIVLSTGAFADRDFLSRVREVCRKTGRRVYIASGAIGGLDAIFSASELIEEIVLTTRKNWRQFGRKGVIFEGSASEAAQKFPKNLNVAATLSIASGKDVKVRLVADEVEENIHEILVRGEFGEMEIRVRNRPMRENPKTSYLAALSVTRILRNLKEGLVV | soluble |
| MDYDVLILGGGIIGCSIAYELSKYSLNVSLIEKEYEIGDDTSIVNSDLVYDGIESKYNFNYGLETEGNQEIEKICSVLSVPFKKVNAIVCSRDKENEDTINKIYSRGIKRGIKDASLANIESAIAKSIILKDINNKGIELKDIGIVCADDLALAYGEVAFDNGVNFRLNEKVIEIKKISKGFNVTTSKNKFTCKIVINTIPDASSPILVDGKEDKGSKKNISNLIYFVLDRKVKASLKHAIAVLSNKGDSTYIFRDFEDNIIVKIVTKDDCLYDEALDKLKAVIGDIEEEDIIYFYKSRFINDKIVITNKLDSDGYIKVQCKSYAISTVTPSISRNVGEAIVKNLNCKLKKEFYGRRREIYRFRDMSNKQRQKLIATNPDYGKIICRCNQVTEGEIIDSIRRPLGARTLNGIKRRTGVFNGECLGTCCIDKIVKILAKETNKSLTEVIKKTENSSIVKGRIKEFDEMLEHHHHHH | not soluble |
| MGSDKIHHHHHHMANLTFYPIGTAGEKWGETEKAAWLASTQIKRSYQDDVVTPLKAMEAKLSALGLGIVQYGALSINAERYPLFAVKSQQFDPQKPTVLVTGGVHGYETSGVHGALAFLTNEAANYVQQVNLVVAVCVSPWGYETINRWNPKAIDPNRSFYANSPAEESAALMALVASVTSVEQGFDVHVDLHETTDSDELEFRPALCARDGIEYDKGTIPDGFYAVGDTEHSMDAFQKAIIDGVSKVTHIAPADEKGEIIGSTVVQHGVINYPLKSLGLCSSVTGCIYNTTTEVYPDSPTATPAECNLAQVAAITSAIDYVLAQR | not soluble |
| QVQLQQSGPEDVKPGASVKISCKASGYTFTDYYMNWVKQSPGKGLEWIGDINPNNGGTSYNQKFKGRATLTVDKSSSTAYMELRSLTSEDSSVYYCESQSGAYWGQGTTVTVSA | soluble |
| MAHHHHHHMHIGLAAAVPSPTTAPQWLQDIENQLLIRNAIELKPSQSIFDSYTTLHVSVLHLQTVEDERQRLRMERSRLTERVRELEQAAANSSLQTSYERELEAKKDALQDQLRVYMQRESDYYKALSEVKAVQEERDMLRLRSNKLDAELEQRTAELQLLHKEYTALRDEYDRVRLTVSEADRYLREVKTAKEKTVQLQHRIVTLEDEVNMLRRQLQEALKGETAAAVDKAKRANPNKDGEDAEVAPSPMHTTHSPHTDPCTTLSPNPLGAEPSHASMVISEAHTSSTLHGLCVLDDGKRFLTSGADKHIRLWNRQSPQAEKYFSSSSIALALDTSSHYLLAGCADHVVRFWDVNSLRVLEMTGHTEKVVAACLSSSAQHAFTASSDSTIKLWDVRRRESLRTLLCQSTCNDVTVAGDTVFSAHYNGKITVWDRRTATRSGEVVAHQRVATCVRVSANGQLCVSMGKDNVISVRDARVFTKTLFSVAPVQLVVMMNWARLSIAPSGQLCAVGSGRTSDLLLIRLHGGGQGDAEATDSASSPALVKVLKACVSNATSYGDQGSGSSKGPIFSTAWGASEGGPLVSISNDRCVQVWE | not soluble |
| MSLKQLPKREELPENLTWDLTKIFSSDQEFDEKYLELSEELKQSEKHKGTLDQGASQFLNAIEFVLRVYRQTEVIYVYAHLKNDQDTGNTDYQALYARASSLFSKVSEAVSWFEPEILQLSDDQIWQYFKEEPKLEVYRHYIQQIVDNRAHVLSAEQESLLAGAGEIFDASSDTFAVLNNADLVFPTIEGENGEIVQLSHGVYGQLLESTDRRVREAAFKGLYSVYEQFRNTFASTLGTHIKGHNFKAKVRNYSSAREASLSNNHIPESVYDTLVDVVNKHLPLLHRYMELRKRLLEVEKLHMYDLYTPVLGEAPITFTYEEAKEKALEALKPMGEEYMAIVEKAFSERWIDVVENKGKRSGAYSSGSYDTNPYILLNWHDTLDQLFTLVHEMGHSVHSYFTRSNQPYVYGDYSIFLAEIASTTNENILTEYLLETEKDPRVRAYVLNHYLDGFKGTVFRQTQFAEFEHFMHTEDEKGVPLTSEYLSDSYGKLNAKYYGPAVEEDPEIKFEWSRIPHFYYNYYVFQYSTGFSAASALAKKILNQEPEALENYLAYLKAGNSDYPVEVMKKAGVDMTQAAYIEDAMSMFEQRLNELEELIDREGHHHHHH | soluble |
| MVIMLATMLHSIAVGNLLPSYVKTICVDMNPSTVTKLMDRGTHQAIGVVTDVGLFLPLLYLKIKEIEAKE | not soluble |
| MTLSAIQPNDMALYHYDSCPFCAKTRHAINELDLNIELRNIQKNHQHRIELQQGGNKTQVPCLRIGQSNGKAQWLYESGDIINFLRNRK | not soluble |
| MSRIEAVFFDCDGTLVDSEVICSRAYVTMFQEFGITLDPEEVFKRFKGVKLYEIIDIVSLEHGVTLAKTEAEHVYRAEVARLFDSAIEGAGALLSAITAPMCVVSNGPNNKMQHSMGKLNMLHYFPDKLFSGYDIQRWKPDPALMFHAAKAMNVNVENCILVDDSVAGAQSGIDAGMEVFYFCADPHNKPIVHPKVTTFTHLSQLPELWKARGWDITA | not soluble |
| NDPDADRFAVAARKADGEYQMLTGDQVGSLFGHYLLSQTDAHRQLVGNTIVSSSLLSKIAAAHGARYYQTLTGFKWLTNVAMQEQTEQHQFLFAYEEALGYTIGSTVWDKDGLSALVAFAQLAAELNAQGKTVWDQLEALYRQHGLHVN | not soluble |
| MSIVNILSVNVLNNPAKFSDPYKFEITFECLEPLKSDLEWKLTYVGSATSQSYDQILDTLLVGPIPIGINKFVFEADPPNIDLLPQLSDVLGVTVILLSCAYEDNEFVRVGYYVNNEMEGLNLQEMDDAEIKKVKVDISKVWRSILAEKPRVTRFNIQWDN | soluble |
| MGSDKIHHHHHHMHRAGDSCTRDRRSRTAWRAALFQPVRRQRPVSEQCVRCCSSNEQWLDVCRYGSGAQGVGGVRHGNCLSPFTFISRLRRSGMTTDTFGGDLPASTLVPQPSFCVQTRVAHDADEQARNLHGWSQTYDQLTAGCFVGGLTELCLDHMQLFVETTSHTLRQTCEVQKDAYWFGIPACAAGSGRIDAQVIAGDALAFRPGGIEFELLTSAGYEIFGVVVKGEVLRRYAAQVERVGLADPVPNTQVVPIGMARKAQLCATLRQLLDDGAARGTPLSSVARNNLQAAVLASLFDVGALPASEPVAMPARPRRQSIVSEARDYVLLNRDRAVSVPELCEQLHVSRRTLQYCFQDVLGMAPATYLRAIRLNGARRDLSNASRESRSVQDVAAAWGFWHLSQFATDYRKLFGMRPSETLKAATGTRVERAGAFNAVALAHH | not soluble |
| MSRSEFPNSKCLICGSICTAKFHFGGLSCNACASFFRRTVSLNIRYLCKNSNNCITSPGQRTFCKACRYESCVDKAGMKRDFVQQRRSTNATPKYILNSTSGSSNREVVRGFITDSNSHLVTQTDHLRNIDNNEHCKDMKKYSDLLEISHMNLLRFYVKQVEPEKKELKNILQIKSINDLMITCAYDNGSAMESCVHCPGTGKLSQEDVRLLQKSFQFAHTWLDSTWQYSIATDIDESEVSGESENLSQFISHIKSTLGACLANLKLDVYEFAAFKSFCVWSIGAQGATESMKVVAQEHYEAVASALKMYYKTFTSMSDSEIATRIEEISFGRSSDVQMIYDETIKLYNKIGIPKSLFFEGN | not soluble |
| MSANDFKPETWTSSANEALRVSIVGENAVQFSPLFTYPIYGDSEKIYGYKDLIIHLAFDSVTFKPYVNVKYSAKLGDDNIVDVEKKLLSFLPKDDVIVRDEAKWVDCFAEERKTHNLSDVFEKVSEYSLNGEEFVVYKSSLVDDFARRMHRRVQIFSLLFIEAANYIDETDPSWQIYWLLNKKTKELIGFVTTYKYWHYLGAKSFDEDIDKKFRAKISQFLIFPPYQNKGHGSCLYEAIIQSWLEDKSITEITVEDPNEAFDDLRDRNDIQRLRKLGYDAVFQKHSDLSDEFLESSRKSLKLEERQFNRLVEMLLLLNNSPSFELKVKNRLYIKNYDALDQTDPEKAREALQNSFILVKDDYRRIIESINKSQG | not soluble |
| MKIACVVLTYNRLSLLKRCIDSIRNQTYQEFDIYVIDNASTDGTAHWLSLQNDLTVISIHENKGPANGFYTCLQVPYDDGYDWIWMMDDDGVADKGQLEELLNKTVKNNLYFTNALVCNIDNPEKIAFGAKKTIDTQREELIKGNINPFNGTFIHRRVIEKNGNIMREMYMYGCETEYQLRAIKNGFQVATVTSAIHYHPSPKVSICHLIPYIKYCSIIDYPIDTLFYIRNKAYINYTYLGFKRSLFMITSYSLYYLFRLKIRKVLLFWKYYREGCKGVVGNKKQ | soluble |
| MGSDKIHHHHHHMRKHGGDVYAYSGQYENILDFSANTNAFIDTGVLSRYPEVSPGDIEKMILQYTGAKSLRVIIGPGLTHFIYRIPAWMGLRRSLIIEPNFNEYEASLLAYGSRTSSLGLGVLKRNPEIVRSYRPDSIFICSPVNPTGDLVDAGLLRKLSMEMSRMGGILFVDQAFGDFVPEHAEETVRIAEEMGNVIIGRSLTKILSIPSLRLGYILVSDQVFGMIRDREEPWAVCEPALEFVRKADLKALRDTSLKRIGEERSYLMEALENMGFEILGDPHANFIAFRSPFEIDLKKQLLKSGILIRDLSDYADFGKNCYRVAVRGRSENALLIQALRNAIL | not soluble |
| MMIENLLIELLTEELPPKSLDKLGNAFAAVIADSLKSQNLTTPDTILTAFASPRRLAVHLTAIPAQAPDQVVALKLMPITVGLDAQGQPTPALHKKLAALGMENVDASALKRVQESKAEMLFLEQNVTGILLAAGLQKAMEDAIRQLPVSKVMTYQLDDGWENVHFVRPVHGLIALHGQKIIPVSAFGLTAGNTTRGHRFEVKQTELIIDHADRYASLLETEGAVIPGFDRRRSWIREGLEAAASAVQLRCISDEVLLDEVTALVEYPNILMGAFPTDFLEVPQECLISTMKINQKYFPLLDTDGKLTNQFLIVANITPADPGQIISGNERVIRSRLADAKFFFDHDRKRTLASRLPDLDKVIYHHQLGSQGERTRYVQTLARIIGRLLGDDNLAGQADQAAMLAKADLLTDMVGEFPELQGIMGRYYARFEGMDETIAFAIEDHYKPRFAGDVLPRSMAGICVALADKLETLISLFSIGQLPTGDKDPYALRRHALGVIRILIEKNLPIGLDVLISRAADVLQDEMIGKQDSGPGHARPVTPQLVGQLQDFFYDRLAASLRDQGYTAQEVEAVLNLRPSL | not soluble |
| MAHHHHHHSAARRRASGENLQQTRPIAAANLQWESYAEALEHSKQDHKPIGLFFTGSDWCMWCIKMQDQILQSSEFKHFAGVHLHMVEVDFPQKNHQPEEQRQKNQELKAQYKVTGFPELVFIDAEGKQLARMGFEPGGGAAYVSKVKSALKLR | soluble |
| IPLFSDAEIKPNHATRTTQVGMPLAISVDDYSQLAFVLTQSGEIQYLSMDAPDKPAIYTQQLATNPVSFSQSAPGLGWYGLVDDQGLAHIFKPEFNATLRENTRPPEVVALSTDMNLTLTDAQDPVTQFVFSASTQTPTIVWQTRSGKVKARWQEKSALGVAPTTIDFSFSAGFDAPQQMLLTPDGETLYLRDGSELIVLTKAAQKFTVREVIDLTQGDKKHSVRTIDLLAGAYSLLVTHNDGRVSQWFDTLQNDKRTLTHIRDFKLASELKYLLPDSHRKGFYSFYTNGTLQSHYTTSEKLVLFKRAYKQAPAMAAMSNNERYLITWNDDSLKVAEVDNSYPEVSLSSLWQKVWYEGYPEPEFVWQSTSASDNFEAKFSLVPIAFGTIKAA | not soluble |
